Patent US20070111265A1, “Ligands for mineralocorticoid receptor (MR) and methods for screening for or designing MR ligands” (Van Andel Research Institute, priority 2005, published 2007)

T1: purified MR/corticosterone complex (MR LBD C808S) (Homo sapiens, UniProt P08235, C808S)
T1 construct: made in house; host or cells: E. coli BL21DE3 (pET24a)
T1 sequence (P08235 727-984 C808S): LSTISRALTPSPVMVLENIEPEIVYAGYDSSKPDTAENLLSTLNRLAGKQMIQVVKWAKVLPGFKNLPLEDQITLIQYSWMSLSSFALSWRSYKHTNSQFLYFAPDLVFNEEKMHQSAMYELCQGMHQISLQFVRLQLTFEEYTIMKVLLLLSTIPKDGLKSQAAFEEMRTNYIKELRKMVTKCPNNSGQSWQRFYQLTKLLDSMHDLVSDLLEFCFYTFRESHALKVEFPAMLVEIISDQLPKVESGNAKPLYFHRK

T2: VP16-MR LBD (Homo sapiens, UniProt P08235)
T2 construct: expressed in transfected cells; host or cells: Cos-7
T2 sequence (P08235 727-984): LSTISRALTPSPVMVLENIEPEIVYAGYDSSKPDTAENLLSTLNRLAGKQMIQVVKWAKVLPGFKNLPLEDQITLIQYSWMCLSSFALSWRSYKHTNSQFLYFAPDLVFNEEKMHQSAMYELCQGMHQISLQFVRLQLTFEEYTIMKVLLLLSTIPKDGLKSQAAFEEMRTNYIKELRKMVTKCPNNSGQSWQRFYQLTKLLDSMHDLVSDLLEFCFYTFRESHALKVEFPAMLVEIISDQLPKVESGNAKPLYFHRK


How the values were obtained:
[1] = biological target: T1, purified MR/corticosterone complex (MR LBD C808S); assay: AlphaScreen peptide competition (IC50) of coactivator LXXLL motifs; format: binding
Description: (D) Binding affinity of various coactivator LXXLL motifs to the purified MR/corticosterone complex as determined by IC50 values from peptide competition experiments using AlphaScreen assays. The numbering scheme of the LXXLL motifs is shown on the top of the sequences.
SRC2-(2+3) and […] SRC2 protein fragments containing 2nd and 3rd LXXLL motifs. The 2nd LXXLL motif of SRC2 was mutated to LXXAA in SRC2-(M2+3).
(G) Binding affinity of PGC1α-(1+2), PGC1α-1 and PGC1α-2 to the purified MR/corticosterone complex as determined by IC50 values from peptide competition experiments.
The fusion protein contains a His6-TAG ([…]) at the N terminus and a thrombin protease site between GST and the MR LBD. BL21DE3 cells transformed with this expression plasmid were grown in LB broth at 16° C. to an OD600 of ˜1 and induced with 0.1 mM IPTG and 50 μM corticosterone. Cells were harvested, resuspended in 400 ml extract buffer (50 mM Tris[pH8.0], 150 mM NaCl, 2 M Urea, 10% glycerol) per 24 liters of cells, and passed three times through a French Press with pressure set at […]. […] Both human PGC1α (1+2) (residues 1-220) and SRC2-(2+3) (residues 563-763) were expressed as a 6×His-GST fusion protein from the expression vector pET24a (Novagen). […]
The binding of various peptide motifs to MR was determined by AlphaScreen assays using a hexahistidine detection kit from Perkin-Elmer. […]

VP16-MR LBD = biological target: T2, VP16-MR LBD; assay: Mammalian two hybrid assay, pG5Luc reporter; format: cell-based; conditions: 10 nM corticosterone
Procedure: (C) Mammalian two-hybrid interaction of SRC1 with MR. GAL4-DBD were fused with the SRC1-4 motif (SRC1-4, residues 1240-1441) and two mutated forms of SRC1-4 [SRC1-4(E1441K), corresponding to E+7K mutation of the SRC1-4 motif, and SRC1-M4 (L1438A/L1439A), corresponding to the LXXAA mutation of the SRC1-4 motif], respectively. VP16 were fused with MR LBD and MR LBD (K782E). The cells were cotransfected with GAL4 and VP16 fusion constructs and pG5Luc reporter. The cells were treated with 10 nM corticosterone.
Cos-7 cells were maintained in DMEM containing 10% fetal bovine serum (FBS) and were transiently transfected using Lipofectamine 2000 (Invitrogen). 24-Well plates were plated 24 hr prior to transfection (5×10^4 cells per well). Cells were transfected in Opti-MEM with 400 ng of MMTV-Luc reporter plasmid and 400 ng of receptor expression vector (pRS vector) encoding full-length GR and MR respectively (ATCC). […] For cotransfection of MR and SRC1, 50 ng Gal4-MR LBD was transfected with 200 ng pG5Luc and various amounts of PCR3.1-SRC1 as indicated in the figure legend. 18 hours after transfection, steroids were added in DMEM supplemented with 5% Charcoal/Dextran treated FBS (Hyclone). Cells were harvested 24 hours later for luciferase assays. Luciferase data were normalized to Renilla activity as an internal control. […]

Molecule | interaction with MR LBD (VP16-MR LBD) | other results
SRC2-(M2+3): SRC2 fragment in which the 2nd LXXLL motif was mutated to LXXAA (protein, left off: small tags and cut ends; a dimerising Fc or GST, SRC2 fragment in which the 2nd LXXLL motif was mutated to LXXAA) QNSPVNMNPPPLSKMGSLDSKDCFGLYGEPSEGTTGQAESSCHPGEQKETNDPNLPPAVSSERADGQSRLHDSKGQTKLLQLLTTKSDQMEPSPLASSLSDTNKDSTGSLPGSGSTHGTSLKEKHKILHRAAQDSSSPVDLAKLTAEATGKDLSQESSSTAPGSEVTIKQEPVSPKKKENALLRYLLDKDDTKDIGLPEIT |  | decrease of binding affinity versus SRC2-(2+3) ([1]; second LXXLL motif mutated): more than 10 fold
PGC1α-(1+2): purified human PGC1α fragment (residues 1-220) containing both LXXLL motifs (protein, left off: small tags and cut ends; a dimerising Fc or GST, purified human PGC1α fragment (residues 1-220) containing both LXXLL motifs) MAWDMCNQDSESVWSDIECAALVGEDQPLCPDLPELDLSELDVNDLDTDSFLGGLKWCSDQSEIISNQYNNEPSNIFEKIDEENEANLLAVLTETLDSLPVDEDGLPSFDALTDGDVTTDNEASPSSMPDGTPPPQEAEEPSLLKKLLLAPANTQLSYNECSGLSTQNHANHNHRIRTNPAIVKTENSWSNKAKSICQQQKPQRRPCSELLKYLTTNDDP |  | binding affinity to MR ([1]; compared with single motifs, FIG. 3G): much higher affinity than either motif alone
SRC1-4M: GAL4-DBD SRC1-4 with LXXAA mutation of the SRC1-4 motif (protein, left off: large carriers; small tags and cut ends, GAL4-DBD SRC1-4 with LXXAA mutation of the SRC1-4 motif) QGEANFAPSLSPGSSMVPMPIPPPQSSLLQQTPPASGYQSPDMKAWQQGAIGNNNVFSQAVQNQPTPAQPGVYNNMSITVSMAGGNTNVQNMNPMMAQMQMSSLQMPGMNTVCPEQINDPALRHTGLYCNQLSSTDLLKTEADGTQQVQQVQVFADVQCTVNLVGGDPYLNQPGPLGTQKPTSGPQTPQAQQKSLLQQAATE | abolished the interaction | 
SRC1-4 E1441K: GAL4-DBD SRC1-4 with E+7K mutation of the SRC1-4 motif (protein, left off: large carriers; small tags and cut ends, GAL4-DBD SRC1-4 with E+7K mutation of the SRC1-4 motif) QGEANFAPSLSPGSSMVPMPIPPPQSSLLQQTPPASGYQSPDMKAWQQGAIGNNNVFSQAVQNQPTPAQPGVYNNMSITVSMAGGNTNVQNMNPMMAQMQMSSLQMPGMNTVCPEQINDPALRHTGLYCNQLSSTDLLKTEADGTQQVQQVQVFADVQCTVNLVGGDPYLNQPGPLGTQKPTSGPQTPQAQQKSLLQQLLTK | failed to interact | 
